Results taken from patent publication US12686704B2, “Procoagulant peptides and use thereof” (RAMBAM MED-TECH LTD., priority 2021, dated 2026).
Where no end group is shown, it is not given here.

Experiments:
[1] = system: Hemophilic mice (VIII-KO mice); test: Mouse-tail bleeding time model in hemophilic mice; format: in vivo; settings: subcutaneous 150-375 μg/kg; FIG. 3D
Experimental: FIGS. 3A-3D include vertical bar graphs showing that modified heparanase procoagulant peptides of the invention decrease bleeding in hemophilic mice. Hemophilic mice (VIII-KO mice; C57BL/6 background, strain name B6;129S4-F8tm1Kaz/J) were studied. (3A) Peptides 16 or 16AC were injected subcutaneously at the flank in doses 150, 225, 300, 375 μg/kg. A mouse-tail bleeding time model was performed. The peptides were dissolved in phosphate-buffered saline (PBS). Control (0) group was injected with the vehicle phosphate buffered saline (PBS). (3D) is identical to (3A) with the exception that peptide 16 C […] and peptide 16A […] were also administered in the disclosed doses. In a similar study, the peptides were topically applied on the tail immediately following the incision of the tail at a rate of a drop every 5 seconds (3B). […] Mann-Whitney U test was used. Results represent mean±SD. *p<0.05.
Hemophilic mice (VIII-KO mice; C57BL/6 background, strain name B6;129S4-F8tm1Kaz/J) were studied. Peptides 16 or 16AC were injected sub-cutis at the flank in doses 150, 225, 300, 375 μg/kg. A mouse-tail bleeding time model was performed. The peptides were dissolved in phosphate-buffered saline (PBS). Control (0) group was injected with the vehicle phosphate buffered saline (PBS) (FIGS. 3A and 3D). In a similar study, the peptides were topically applied on the tail immediately following the incision of the tail at a rate of a drop every 5 seconds (FIG. 3B).

[2] = target: lipidated TF, factor VIIa, factor X (Homo sapiens, UniProt P13726); test: Factor X activation assay of purified proteins (chromogenic substrate); format: biochemical; settings: peptides at 5 μg/ml and 10 μg/ml; compared to control; FIG. 1A
Experimental: FIGS. 1A-1C include vertical bar graphs and thromboelastography (TEG) curves, showing that peptide 16 and peptide 16AC increase coagulation. Peptide 16 and 16AC were studied in an assay of purified proteins that included lipidated TF (4 nM), factor VIIa (40 nM), factor X (1.4 μM) and assay buffer. Factor X activated form (Xa) level was studied using a chromogenic substrate (1 mM). […] Bovine factor Xa diluted in the assay buffer was used to generate a standard curve. Without addition of TF (two right columns), no factor Xa was generated. […] (1B) A citrated pooled normal human blood sample (n=3) was left for 4 hours at room temperature in order to expose TF in bloods cells. Following this period, the peptides 16 and 16AC were added (5 μg/ml) along with calcium. […] Representative TEG curves are shown. (1C) The study presented in FIG. 1B was repeated 3 times with different pooled plasma. […] Peptide 16 (non-modified); peptide 16 comprising a C-terminal amid group (16A); peptide 16 comprising an N-terminal acetyl group (16C); and peptide 16 comprising a C-terminal amid group and an N-terminal acetyl group (16AC). In 1B: for control—SP min=11.2; R min=12.8; K min=3.8, Angle deg=52.0; and MA mm=47.9, for Peptide 16—SP min=5.2; R min=6.4; K min=2.8, Angle deg=63.3; and MA mm=50.4, and for Peptide 16AC—SP min=4.7; R min=5.6; K min=2.5, Angle deg=63.1; and MA mm=53.8.
Peptides 16, 16C, 16A and 16AC were studied in an assay of purified proteins that included lipidated TF (0.004 μM), factor VIIa (0.04 μM), factor X (1.4 μM) and assay buffer. Factor X activated form (Xa) level was studied using a chromogenic substrate (1 mM). […] Bovine factor Xa diluted in the assay buffer was used to generate a standard curve. Without addition of TF (two right columns), no factor Xa was generated.

Sequence of lipidated TF, factor VIIa, factor X (P13726 33-295): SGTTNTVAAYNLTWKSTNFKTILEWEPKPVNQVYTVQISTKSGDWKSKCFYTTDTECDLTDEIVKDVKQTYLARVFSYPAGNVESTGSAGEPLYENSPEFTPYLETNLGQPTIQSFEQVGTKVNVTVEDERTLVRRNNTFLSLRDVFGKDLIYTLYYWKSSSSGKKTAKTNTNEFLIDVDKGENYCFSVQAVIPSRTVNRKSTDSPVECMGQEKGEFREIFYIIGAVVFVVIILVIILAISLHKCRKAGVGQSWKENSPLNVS
Sequence of lipidated TF, factor VIIa, factor X (P08709 61-212 partner limits assumed): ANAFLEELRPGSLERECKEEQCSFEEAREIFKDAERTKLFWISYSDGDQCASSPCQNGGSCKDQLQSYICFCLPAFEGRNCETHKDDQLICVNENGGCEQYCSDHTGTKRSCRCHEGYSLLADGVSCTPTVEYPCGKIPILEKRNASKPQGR
Sequence of lipidated TF, factor VIIa, factor X (P08709 213-466 partner limits assumed): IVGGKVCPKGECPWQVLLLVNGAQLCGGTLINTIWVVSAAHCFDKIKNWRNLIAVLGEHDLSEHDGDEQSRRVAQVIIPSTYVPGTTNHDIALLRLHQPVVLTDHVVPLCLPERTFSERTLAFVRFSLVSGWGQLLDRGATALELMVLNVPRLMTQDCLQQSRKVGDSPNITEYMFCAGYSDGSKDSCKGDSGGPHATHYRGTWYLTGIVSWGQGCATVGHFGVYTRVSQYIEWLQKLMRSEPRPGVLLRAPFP

| Substance | bleeding time reduction, comparison between peptides [1] | activation of factor X (factor Xa level) [2] |
| --- | --- | --- |
| GSKRRKLRVYLHCT-amid (GSKRRKLRVYLHCT-NH2) [Peptide 16A, peptide 16 comprising a C-terminal amid group] | significant better effect to reduce the bleeding time compared to peptide 16 and peptide 16C | significantly increased activation of factor X compared to control |
| acetyl-GSKRRKLRVYLHCT (Ac-GSKRRKLRVYLHCT) [Peptide 16C, peptide 16 comprising an N-terminal acetyl group] | – | significantly increased activation of factor X compared to control |
